± gives the standard error. For some of these results: Variants at the floor of the assay were thinned out.
B1: glmS ribozyme (parent)
chain: AUAAAAGCGCCAGAACUACAGAAAUGUAGUUGACGAGGAGGAGGUUUAUCGAAUUUUCGGCGGAUGCCUCCAAA

Assays:
Conditions in all cases: with glucosamine-6-phosphate
glucosamine-6-phosphate [1] = variants of: B1; assay: kcat; higher = faster cleavage; RNA array
Method in brief: (§1)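 Using a hybridised Cy3 probe at 37 °C, barcoded ribozyme variants transcribed in situ by E. coli RNA polymerase on sequenced MiSeq chips were monitored across tiles imaged over ~14 h. The flow contained glucosamine-6-phosphate from 40 μM to 10 mM in HEPES/KCl/Mg(OAc)2 buffer. Signals were normalised to baseline and to non-cleaving reference variants before per-tile medians were fit to one- or two-exponential decays to yield kobs. Weighted Michaelis–Menten fits across concentrations gave kcat and KM.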

glucosamine-6-phosphate [2] = variants of: B1; assay: KM; higher = weaker cofactor use; RNA array
Method in brief: as §1

glucosamine-6-phosphate [3] = variants of: B1; assay: self-cleavage kobs at 640 uM GlcN6P; higher = faster cleavage; RNA array
Method in brief: as §1

glucosamine-6-phosphate [4] = variants of: B1; assay: self-cleavage kobs at 2500 uM GlcN6P; higher = faster cleavage; RNA array
Method in brief: as §1

glucosamine-6-phosphate [5] = variants of: B1; assay: self-cleavage kobs at 10000 uM GlcN6P; higher = faster cleavage; RNA array
Method in brief: as §1

glucosamine-6-phosphate [6] = variants of: B1; assay: self-cleavage kobs at 160 uM GlcN6P; higher = faster cleavage; RNA array
Method in brief: as §1

glucosamine-6-phosphate [7] = variants of: B1; assay: self-cleavage kobs at 40 uM GlcN6P; higher = faster cleavage; RNA array
Method in brief: as §1

Row | Variant | kcat (glucosamine-6-phosphate [1]) [s⁻¹] | KM (glucosamine-6-phosphate [2]) [µM] | self-cleavage kobs at 640 uM GlcN6P (glucosamine-6-phosphate [3]) [s⁻¹] | self-cleavage kobs at 2500 uM GlcN6P (glucosamine-6-phosphate [4]) [s⁻¹] | self-cleavage kobs at 10000 uM GlcN6P (glucosamine-6-phosphate [5]) [s⁻¹] | self-cleavage kobs at 160 uM GlcN6P (glucosamine-6-phosphate [6]) [s⁻¹] | self-cleavage kobs at 40 uM GlcN6P (glucosamine-6-phosphate [7]) [s⁻¹]
1 | G13A G32U | 0.000303 ± 3.2e-05 | 3170 ± 600 | 4.76e-05 ± 1e-05 | 0.000147 ± 2.3e-05 | 0.000221 ± 3.7e-05 | – | –
2 | A12C U46A | 0.00133 ± 0.00029 | 2440 ± 900 | 0.000302 ± 4.8e-05 | 0.000533 ± 9.6e-05 | 0.00122 ± 0.00017 | 0.000101 ± 2.8e-05 | –
3 | A12C U46G | 0.00332 ± 0.00078 | 1950 ± 600 | 0.000761 ± 0.00012 | 0.002 ± 0.00032 | 0.00278 ± 0.00064 | 0.000221 ± 3.6e-05 | 8.74e-05 ± 1.3e-05
4 | A12C C68A | 2.22e-05 ± 4.9e-06 | – | – | 2.42e-05 ± 7.9e-06 | – | < 1e-05 | < 1e-05
5 | A12U A33U | 0.000444 ± 0.0001 | 3790 ± 1500 | 7.77e-05 ± 8.6e-06 | 0.00015 ± 1.6e-05 | 0.000348 ± 3.2e-05 | – | –
6 | A12U U31G | 0.0183 ± 0.0087 | – | 0.00439 ± 0.00076 | 0.00841 ± 0.0023 | 0.0262 ± 0.0045 | 0.00142 ± 0.00026 | 0.000567 ± 5.6e-05
7 | A12U U31A | 0.0283 ± 0.0065 | 2890 ± 880 | 0.00457 ± 0.0011 | 0.0106 ± 0.0026 | 0.0257 ± 0.0049 | 0.00177 ± 0.00045 | 0.000416 ± 7.3e-05
8 | G13A C50A | < 1e-05 | – | – | – | < 1e-05 | – | < 1e-05
9 | A12C G66C C70A | 8.64e-05 ± 2.7e-05 | – | 3.9e-05 ± 1.8e-05 | 0.00011 ± 3.2e-05 | 8.13e-05 ± 1.6e-05 | 0.000157 ± 5.7e-05 | –
10 | A12C U57C | 0.000312 ± 5.1e-05 | 4850 ± 1600 | 4.73e-05 ± 1.2e-05 | 9.32e-05 ± 1.7e-05 | 0.000214 ± 2.2e-05 | – | –
11 | A12C U57A | 0.000102 ± 2.4e-05 | – | 5.75e-05 ± 1.5e-05 | 6.14e-05 ± 1.2e-05 | 0.000113 ± 1.9e-05 | – | –
12 | C11U G38C | < 1e-05 | – | < 1e-05 | < 1e-05 | – | – | –
13 | C11U G38A | < 1e-05 | – | – | – | < 1e-05 | < 1e-05 | < 1e-05
14 | C11U G32U | 0.000176 ± 8e-05 | – | – | – | 3.94e-05 ± 5.4e-06 | – | –
15 | A12C A15U | 0.00259 ± 0.00075 | 1430 ± 600 | 0.00126 ± 0.0002 | 0.0012 ± 0.00021 | 0.00271 ± 0.00031 | 0.000208 ± 3.6e-05 | 7.96e-05 ± 8.9e-06

— the supplement of paper PMC7125110
